Reference: patent publication US10240180B2, “Multiplexed screening of enzyme activities using nanostructure-initiator mass spectrometry” (The Regents of the University of California, priority 2011, dated 2019)

Experiments:
Type in all cases: biochemical
[1] = Separate analysis of β-xylosidase activity (NIMS); settings: XB-F17 substrate, 1 h
Description: The separate characterization of β-glucosidase and β-xylosidase activity was carried out in reaction volumes of 20-50 μL, by mixing 0.1 mM cellobiose with 8 μg of NS50010 in 50 mM sodium acetate buffer (pH 4.8), or 0.1 mM xylobiose with 0.13 μg (in […]) or 0.33 μg (in 50 μL) of 1,4-β-D-xylosidase in 50 mM potassium phosphate buffer (pH 7.5) with 1 mg/mL BSA. For the competition studies with cellobiose, samples additionally contained 10, 25, or 50 mM of unlabeled cellobiose (Sigma-Aldrich; St. Louis, Mo.). Other buffers used for the determination of the pH optima were McIlvaine's citrate/phosphate buffer (pH 2.6 and 6.0), 50 mM Tris buffer (pH 9.0) for NS50010, and 50 mM potassium phosphate buffer (pH 6.0), 50 mM Tris buffer (pH 9.0), 50 mM sodium borate buffer (pH 11.0), all with 1 mg/mL BSA for the β-xylosidase. Samples were incubated for 1 h at 35° C. (β-xylosidase) or 50° C. […]
In FIG. 4a, the determined temperature optima for the used enzymes were 50-60° C. for β-glucosidase (black) and 35° C. for β-xylosidase (gray). In FIG. 4b, the determined pH optima were around pH 4.8 for β-glucosidase (black) and around pH 7.5 for β-xylosidase (gray). […]
(§1) In each case 0.5-1 μL per quenched reaction sample was spotted onto the NIMS surface and removed after an incubation of ˜30 s. […] Enzyme activities were determined by forming product-to-substrate ratios.

[2] = Multiplexed β-glucosidase/β-xylosidase assay with known enzymes, cellobiose substrate; settings: equal amounts CB-F17 and XB-F17 (0.1 mM each), 1 h
Description: (§2) It can be difficult to discriminate between several products in simultaneous reactions using conventional spectroscopic methods since these reactions typically yield the same outputs and there are only a few unique absorption or emission patterns that can be resolved separately. In contrast, mass spectrometry can resolve thousands of ions and therefore we have discovered that it is well-suited for the parallel detection of large numbers of reaction products where the substrates and occurring products differ in mass. This is the case, for example, when using pentose and hexose-based substrates at the same time. The hydrolysis of polysaccharides with identical masses (e.g. cellobiose and maltose) can even be analyzed in the same run by using different chemical structures in the linker or perfluorinated tags of varying length. Thus, potentially dozens of enzymatic conversions can be tested simultaneously using this method. Here both β-glucosidase and β-xylosidase activities were detected simultaneously utilizing a substrate cocktail comprised of equal amounts of CB-F17 and XB-F17. In the non-enzyme control only signals for cellobiose and xylobiose were detectable (FIG. 5a). […]
as §1

[3] = Multiplexed β-glucosidase/β-xylosidase assay with known enzymes, xylobiose substrate; settings: equal amounts CB-F17 and XB-F17 (0.1 mM each), 1 h
Description: as §2, §1

B1: β-xylosidase: 1,4-β-D-xylosidase from Bacillus pumilus purchased from Megazyme (protein, UniProt P07129 1-535, looked up)
Beta-xylosidase: MKITNPVLKGFNPDPSICRAGEDYYMAVSTFEWFPGVQIYHSKDLIHWRLAARPLQKTSQLDMKGNPDSGGVWAPCLSYADGQFWLIYSDIKVVDGPFKDGHNYLVTADAVDGEWSDPVRLNSSGFDPSLFHDPSGKKYVLNMLWDHREKHHSFAGIALQEYSVSEKKLVGERKVIFKGTPIKLTEAPHLYYINDVYYLLTAEGGTRYEHAATIARSSRIDGPYEVHPDNPILTAFHAPSHPLQKCGHASIVQTHTNEWYLAHLTGRPIHSSKESIFQQRGWCPLGRETAIQKLEWKDGWPYVVGGKEGLLEVEAPAMSVKEFSPTYHIVDEFKDSSLNRHFQTLRIPFTDQIGSVTENPHHLRLYGQESLTSKFTQAFVARRWQSFYFEAETAVSFFPKNFQQAAGLVNYYNTENWTALQVTYDDALGRILELSVCENLAFSQPLIKKIIIPDEIPYVYLKVTVQRETYTYSYSFDQQEWEKIDVPLESTHLSDDFIRGGGFFTGAFVGMQCQDTSGERLPADFKYFRYEETTE
In the case of B1, the temperature optimum [1] is reported as 35 °C, the pH optimum ([1]; 35° C.) is reported as roughly 7.5 pH and the “cleavage of cellobiose (CB-F17) in substrate cocktail” value [2] is reported as “no enzymatic cleavage of cellobiose”. For the same molecule, the “cleavage of xylobiose (XB-F17) in substrate cocktail” value [3] was “conversion of xylobiose to xylose”.
